Test results: the supplement of paper PMC10567573

B1: NP_009172.2 (parent)
chain: LPALFTDLYSQEITAEEAREALP

Variants of: B1
Experiment: protein stability index of a GFP-peptide fusion (GPS, HEK-293T) (PSI 1-6); higher = more stable
Conditions: c terminus: native
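Also: lentivirally expressed fusion library, cells FACS-sorted into six equal-sized GFP/DsRed ratio bins, PSI computed from sequencing read fractions per bin weighted by bin number.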

Protein stability index of substitutions, site by site:
E17: M 2.22 | L 2.16 | Q 2.83 | K 2.18 | S 2.33 | R 1.87 | F 2.38 | Y 2.32 | H 2.2 | N 2.5 | V 2.43 | T 2.3 | D 2.71 | A 2.39 | W 2.4 | I 2.4 | P 2.73 | G 2.21 | C 2.24
R19: G 2.96 | D 3 | F 2.68 | M 2.59 | L 2.47 | I 2.45 | E 2.81 | K 2.79 | N 2.71 | A 2.75 | H 2.82 | C 2.93
T14: W 2.62 | V 2.51 | Q 2.27 | S 2.67 | N 2.76 | M 2.45 | F 2.48 | P 3.48 | A 2.21 | R 2.44 | K 2.34 | H 2.46 | D 2.55 | G 2.73 | L 2.48 | E 2.66 | I 2.25 | Y 2.56 | C 2.48
Q11: E 2.88 | T 3.21 | K 2.4 | M 2.54 | A 2.7 | H 2.76 | D 3.31 | W 2.63 | F 2.52 | V 2.79 | Y 2.67 | I 2.52 | P 3.82 | C 2.95 | S 3.04 | L 2.65 | N 2.92 | G 3.59 | R 2.26
L4: S 2.55 | Q 3.62 | E 5.24 | M 3.19 | C 2.64 | R 2.21 | T 2.27 | N 2.76 | I 4.64 | V 4.59 | D 4.87 | A 3.64 | Y 3.47 | H 3.54 | F 2.99 | K 2.77 | P 4.94 | W 3.98 | G 2.69
F5: K 5.25 | E 5.38 | P 5.3 | C 5.41 | W 2.25 | A 5.41 | S 5.37 | N 5.52 | T 5.25 | Y 3.72 | M 5.24 | Q 5.24 | V 5.07 | L 5.16 | R 5.42 | I 5.08 | D 5.58 | G 5.28
D7: K 3.33 | A 2.88 | Y 2.56 | R 2.77 | M 2.71 | C 3.44 | V 2.58 | S 3.08 | T 2.57 | E 2.46 | F 2.6 | P 4.4 | Q 2.63 | G 4.02 | W 2.48 | L 2.61 | I 2.49 | H 3.13 | N 3.52
I13: M 2.53 | L 2.71 | D 3.25 | H 2.71 | W 2.15 | G 3.81 | N 3.46 | A 2.97 | F 2.69 | K 2.66 | T 3.09 | C 2.57 | P 3.87 | Q 2.98 | S 3.26 | R 2.1 | E 3.25 | V 2.46 | Y 2.69
A3: M 2.47 | W 2.42 | C 2.64 | N 2.96 | I 2.43 | Y 2.62 | L 2.56 | P 2.62 | Q 2.22 | K 2.1 | T 2.56 | R 2.43 | D 4.1 | H 2.81 | G 2.68 | S 2.74 | V 2.49 | E 3.66 | F 2.76
Y9: W 2.65 | S 3.98 | M 3.13 | L 2.39 | I 1.88 | C 2.42 | Q 5.15 | D 5.38 | E 5.17 | F 2.81 | P 5.13 | V 2.21 | R 5.15 | K 5.39 | T 2.74 | H 4.49 | A 2.34 | G 5.3 | N 5.01
A18: G 2.95 | S 2.72 | E 2.83 | V 2.71 | C 2.91 | P 3.08 | N 2.75 | H 2.42 | Q 2.86 | D 3.24 | F 2.73 | T 3.04 | Y 2.35 | I 2.57 | L 2.51 | W 2.67 | M 2.75 | K 2.26 | R 2.45
L1: Y 2.5
A15: Q 2.84 | G 2.83 | L 2.53 | E 2.55 | P 3.05 | C 3 | M 2.51 | F 2.53 | V 2.78 | T 3.05 | S 2.67 | W 2.68 | H 2.6 | I 2.76 | N 2.66 | R 2.36 | K 2.56 | Y 2.72
L8: Y 2.53 | M 2.24 | E 4.59 | N 3.46 | C 3.77 | W 3.27 | G 5.28 | R 2.22 | H 2.56 | T 3.69 | I 2.59 | K 2.39 | V 2.81 | S 4.05 | F 3.05 | D 5.11 | Q 2.91 | P 5.43 | A 3.14
E12: Q 2.69 | F 3.01 | V 3.38 | S 3.13 | N 3.79 | C 3.19 | K 2.92 | D 2.99 | I 3.15 | H 3.39 | M 2.93 | R 2.59 | A 3.56 | T 3.03 | Y 3.07 | L 3.04 | G 3.78 | W 2.21 | P 3.77
S10: C 2.16 | F 2.57 | A 2.52 | P 3.79 | M 2.26 | N 2.61 | H 2.85 | V 2.35 | T 2.38 | Y 2.36 | L 2.3 | W 2.26 | I 1.95 | R 2.71 | K 2.48 | E 2.48 | Q 2.57 | G 3.08 | D 2.8
T6: F 4.22 | G 4.09 | A 2.34 | C 3.02 | Y 4.5 | R 3.15 | E 3.68 | P 5.24 | M 3.69 | D 5.37 | Q 2.18 | H 4.28 | N 4.77 | V 2.24 | W 4.06 | S 2.55 | K 3.32 | I 2.7 | L 3.54
E16: F 2.89 | W 2.48 | H 2.75 | C 2.51 | P 3.16 | Q 2.64 | D 2.75 | N 2.81 | M 2.58 | I 2.99 | G 2.9 | K 2.97 | S 2.86 | R 2.68 | V 2.48 | Y 2.51 | A 2.76 | T 2.62 | L 2.73
P2: L 2.48 | A 2.69 | Y 2.85 | D 3.64 | F 2.54 | G 3.03 | I 2.37 | N 2.59 | Q 2.69 | V 2.46 | T 2.51 | E 3.51 | M 2.79 | S 2.71 | H 2.52 | R 2.28 | W 2.66 | C 2.64 | K 2.5
